Patent publication US20200024330A1

Columns and labels:
Test in all cases: cell-based or functional assay
[1] = target: HIV-1 92BR020 envelope glycoprotein (Env) on pseudovirus (HIV-1)
[2] = target: HIV-1 92RW020 envelope glycoprotein (Env) on pseudovirus (HIV-1)
[3] = target: HIV-1 92TH021 envelope glycoprotein (Env) on pseudovirus (HIV-1)
[4] = target: HIV-1 92UG024 envelope glycoprotein (Env) on pseudovirus (HIV-1)
[5] = target: HIV-1 Env of isolate MGRM-AE-004 (HIV-1)
[6] = target: HIV-1 Env of isolate MGRM-AE-005 (HIV-1)
[7] = target: HIV-1 Env of isolate MGRM-AE-006 (HIV-1)
[8] = target: HIV-1 Env of isolate MGRM-AE-007 (HIV-1)
[9] = target: HIV-1 Env of isolate MGRM-AE-008 (HIV-1)
[10] = target: HIV-1 Env of isolate MGRM-G-001 (HIV-1)
[11] = target: HIV-1 Env of isolate MGRM-G-004 (HIV-1)
[12] = target: HIV-1 Env of isolate MGRM-G-006 (HIV-1)
[13] = target: HIV-1 Env of isolate MGRM-G-009 (HIV-1)
[14] = target: HIV-1 Env of isolate MGRM-G-011 (HIV-1)
[15] = target: HIV-1 Env of isolate MGRM-G-013 (HIV-1)
[16] = target: HIV-1 Env of isolate MGRM-G-014 (HIV-1)
[17] = target: HIV-1 Env of isolate MGRM-G-015 (HIV-1)
[18] = target: HIV-1 Env of isolate MGRM-G-016 (HIV-1)
[19] = target: HIV-1 Env of isolate MGRM-G-017 (HIV-1)
[20] = target: HIV-1 Env of isolate MGRM-G-019 (HIV-1)
[21] = target: HIV-1 Env of isolate MGRM-G-027 (HIV-1)
[22] = target: HIV-1 MGRM-Chronic-B-008 Env (pseudovirus) (HIV-1)
[23] = target: HIV-1 NL43 envelope glycoprotein (Env) on pseudovirus (HIV-1)
[24] = target: aMLV envelope (negative control pseudovirus)

## 4877_D15 (PGT-122) (antibody)
[1]
  IC50 (ug/ml), neutralizing activity: 0.0337 µg/mL
[2]
  IC50 (ug/ml), neutralizing activity: 0.0072 µg/mL
[3]
  IC50 (ug/ml), neutralizing activity: > 10 µg/mL
[4]
  IC50 (ug/ml), neutralizing activity: > 10 µg/mL
[5]
  neutralization IC50: > 50 µg/mL
[6]
  neutralization IC50: > 50 µg/mL
[7]
  neutralization IC50: > 50 µg/mL
[8]
  neutralization IC50: > 50 µg/mL
[9]
  neutralization IC50: > 50 µg/mL
[10]
  IC50, pseudovirus neutralization: 0.005 µg/mL
[11]
  IC50, pseudovirus neutralization: 2.15 µg/mL
[12]
  IC50, pseudovirus neutralization: > 50 µg/mL
[13]
  IC50, pseudovirus neutralization: 0.514 µg/mL
[14]
  IC50, pseudovirus neutralization: 31.3 µg/mL
[15]
  IC50, pseudovirus neutralization: 3.45 µg/mL
[16]
  IC50, pseudovirus neutralization: 0.008 µg/mL
[17]
  IC50, pseudovirus neutralization: > 50 µg/mL
[18]
  IC50, pseudovirus neutralization: > 50 µg/mL
[19]
  IC50, pseudovirus neutralization: 0.032 µg/mL
[20]
  IC50, pseudovirus neutralization: 0.016 µg/mL
[21]
  IC50, pseudovirus neutralization: 0.606 µg/mL
[22]
  IC50, pseudovirus neutralization: 0.017 µg/mL
[23]
  IC50 (ug/ml), neutralizing activity: > 10 µg/mL
[24]
  IC50, pseudovirus neutralization: > 50 µg/mL
  Neutralization by PGT-122, IC50: > 10 µg/mL
  Neutralization by PGT-122, IC80: > 10 µg/mL
  Neutralization by PGT-122, IC90: > 10 µg/mL
  Neutralization by PGT-122, IC95: > 10 µg/mL

## 5123_A06 (PGT-125) (antibody)
[1]
  IC50 (ug/ml), neutralizing activity: 0.0214 µg/mL
  neutralization IC50: 0.0214 µg/mL
  neutralization IC80: 0.0738 µg/mL
  neutralization IC90: 0.156 µg/mL
  neutralization IC95: 0.323 µg/mL
[2]
  IC50 (ug/ml), neutralizing activity: 0.0028 µg/mL
  neutralization IC50: 0.0028 µg/mL
  neutralization IC80: 0.011 µg/mL
  neutralization IC90: 0.0248 µg/mL
  neutralization IC95: 0.0526 µg/mL
[3]
  IC50 (ug/ml), neutralizing activity: 0.0066 µg/mL
  neutralization IC50: 0.0066 µg/mL
  neutralization IC80: 0.0292 µg/mL
  neutralization IC90: 0.0701 µg/mL
  neutralization IC95: 0.157 µg/mL
[4]
  IC50 (ug/ml), neutralizing activity: > 10 µg/mL
  neutralization IC50: > 10 µg/mL
  neutralization IC80: > 10 µg/mL
  neutralization IC90: > 10 µg/mL
  neutralization IC95: > 10 µg/mL
[5]
  neutralization IC50: > 50 µg/mL
[6]
  neutralization IC50: 0.01 µg/mL
[7]
  neutralization IC50: 0.009 µg/mL
[8]
  neutralization IC50: 0.876 µg/mL
[9]
  neutralization IC50: > 50 µg/mL
[10]
  IC50, pseudovirus neutralization: 0.033 µg/mL
[11]
  IC50, pseudovirus neutralization: > 50 µg/mL
[12]
  IC50, pseudovirus neutralization: > 50 µg/mL
[13]
  IC50, pseudovirus neutralization: > 50 µg/mL
[14]
  IC50, pseudovirus neutralization: > 50 µg/mL
[15]
  IC50, pseudovirus neutralization: > 50 µg/mL
[16]
  IC50, pseudovirus neutralization: 0.007 µg/mL
[17]
  IC50, pseudovirus neutralization: > 50 µg/mL
[18]
  IC50, pseudovirus neutralization: > 50 µg/mL
[19]
  IC50, pseudovirus neutralization: > 50 µg/mL
[20]
  IC50, pseudovirus neutralization: > 50 µg/mL
[21]
  IC50, pseudovirus neutralization: 34.4 µg/mL
[22]
  IC50, pseudovirus neutralization: > 50 µg/mL
[23]
  IC50 (ug/ml), neutralizing activity: > 10 µg/mL
  neutralization IC50: > 10 µg/mL
  neutralization IC80: > 10 µg/mL
  neutralization IC90: > 10 µg/mL
  neutralization IC95: > 10 µg/mL
[24]
  IC50, pseudovirus neutralization: > 50 µg/mL

## 5145_B14 (PGT-127) (antibody)
[5]
  neutralization IC50: > 50 µg/mL
[6]
  neutralization IC50: > 50 µg/mL
[7]
  neutralization IC50: > 50 µg/mL
[8]
  neutralization IC50: > 50 µg/mL
[9]
  neutralization IC50: > 50 µg/mL
[10]
  IC50, pseudovirus neutralization: 0.113 µg/mL
[11]
  IC50, pseudovirus neutralization: > 50 µg/mL
[12]
  IC50, pseudovirus neutralization: > 50 µg/mL
[13]
  IC50, pseudovirus neutralization: > 50 µg/mL
[14]
  IC50, pseudovirus neutralization: > 50 µg/mL
[15]
  IC50, pseudovirus neutralization: 7.7 µg/mL
[16]
  IC50, pseudovirus neutralization: 0.009 µg/mL
[17]
  IC50, pseudovirus neutralization: > 50 µg/mL
[18]
  IC50, pseudovirus neutralization: > 50 µg/mL
[19]
  IC50, pseudovirus neutralization: > 50 µg/mL
[20]
  IC50, pseudovirus neutralization: 0.429 µg/mL
[21]
  IC50, pseudovirus neutralization: > 50 µg/mL
[22]
  IC50, pseudovirus neutralization: 21.5 µg/mL
[24]
  IC50, pseudovirus neutralization: > 50 µg/mL
